{"source": "paper PMC4038614", "key": {"[1]": {"target": "Ly49H (B6 allele), endogenous on splenic NK cells (mouse (endogenous in splenic NK cells)) (UniProt Q60682)"}, "[2]": {"target": "Ly49H^B6 expressed on BWZ.36 cells (BWZ-Ly49H) (mouse (B6)) (UniProt Q60682)", "assay": "flow cytometry on cells; dissociation: BWZ transfectants labelled with saturating m157-Fc at 4°C, washed, incubated at 37°C for 5 to 90 min with excess anti-m157 antibody 6H121 to prevent re-binding; MFI at 0 min = 100%"}, "[3]": {"target": "Ly49C^B6 expressed on BWZ.36 cells (BWZ-Ly49C) (mouse (B6)) (UniProt Q64329)", "sequence (Q64329 whole entry)": "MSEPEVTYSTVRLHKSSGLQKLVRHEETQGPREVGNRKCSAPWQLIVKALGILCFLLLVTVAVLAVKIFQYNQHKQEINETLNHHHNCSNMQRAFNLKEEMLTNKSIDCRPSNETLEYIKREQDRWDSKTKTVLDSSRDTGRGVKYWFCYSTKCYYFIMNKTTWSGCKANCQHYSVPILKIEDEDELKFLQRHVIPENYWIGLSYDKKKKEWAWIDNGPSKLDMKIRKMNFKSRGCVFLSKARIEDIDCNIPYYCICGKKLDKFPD", "assay": "flow cytometry on cells; dissociation: BWZ transfectants labelled with saturating m157-Fc at 4°C, washed, incubated at 37°C for 5 to 90 min with excess anti-m157 antibody 6H121 to prevent re-binding; MFI at 0 min = 100%"}, "[4]": {"target": "Ly49H^B6 expressed on BWZ.36 cells (BWZ-Ly49H) (mouse (B6)) (UniProt Q60682)", "assay": "flow cytometry on cells; association time course: BWZ transfectants with saturating m157-Fc for 30 sec/1 min to 40 min at 4°C; MFI at 40 min = 100%"}, "[5]": {"target": "Ly49C^B6 expressed on BWZ.36 cells (BWZ-Ly49C) (mouse (B6)) (UniProt Q64329)", "assay": "flow cytometry on cells; association time course: BWZ transfectants with saturating m157-Fc for 30 sec/1 min to 40 min at 4°C; MFI at 40 min = 100%"}}, "data": [{"substance": "m157^G1F-Fc soluble fusion protein (Fc fusion)", "values": [{"measurement": "IFN-γ production of Ly49H^+,C^- B6 NK cells exposed to RMA cells expressing m157^G1F; abolished by blocking anti-Ly49H 3D10", "setting": "[1]", "value": 15, "unit": "% IFN-γ^+"}, {"measurement": "degranulation (LAMP1^+) of Ly49H^+,C^- B6 NK cells exposed to RMA cells expressing m157^G1F; abolished by blocking anti-Ly49H 3D10", "setting": "[1]", "value": 40, "unit": "% LAMP1^+"}, {"measurement": "percent still bound after 90 min", "setting": "[2]", "value": "> 50", "unit": "%"}, {"measurement": "time to 50% dissociation", "setting": "[3]", "value": 20, "unit": "min"}, {"measurement": "time to 50% of maximal binding", "setting": "[4]", "value": 7, "unit": "min"}, {"measurement": "time to 50% of maximal binding", "setting": "[5]", "value": 5, "unit": "min"}]}]}
